This series deals with the molecule itself. Nature of the series: cross-linking; purified complexes from the major SEC peaks, 0.5 mg/mL in 50 mM HEPES pH 7.5, 150 mM NaCl, 0.1% glutaraldehyde for 30 min at room temperature, quenched with tris; SEC and SDS-PAGE with Coomassie staining.

B1: EsaDEG trimer (complex)
chain 1: MTKDIEYLTADYDNEKSSIQSVIDAIEGQDFLDVDTTMDDAVSDVSSLDEDGAISLTSSVVGPQGSKLMGYYQNELYDYASQLDSKMKEIIDTPFIEDIDKAFKGITNVKLENILIKNGGGHGRDTYGASGKIAKGDAKKSDSDVYSIDEILKSDQEFVKVIDQHYKEMKKEDKKLSKSDFEKMMTQGASCDYMTVAEAEELEEQKKKEEAIEIAALAGMVVLSCINPVAGAVAIGAYSAYSAANAATGKNIVTGRKLSKEERIMEGLSLIPLPGMGFLKGAGKSLMKLGFKGGEKFAVKTGLQKTMQQAVSRISPKMGMMKNSVLNQSRNFAQNTHVGQMLSNMRGQATHTVQQSRNWIGQQAQNVKRIVNNGLDKEIAHPFKQQLAPAGMGGIKFAETTTLRNMGQNIKRAVTPQNHVTHGPKDSMVRSEGKHSISSHEMNSSKYVESPNYTKVEFGEHYARLRPKKLKANIEYTTPTGHIYRTDHKGRIKEVYVDNLSLKDGDRNSHAQRTVGGEDRLPDDDGGALIARMFGGSKDIDNLVAQSKFINRPFKEKGHWYNLEKEWQEFLNSGKEVKNIKMEVKYSGNSQRPTIFKVEYEINGERNIRRILNK
chain 2: MKDVKRIDYFSYEELTILGGSKLPLVNFELFDPSNFEEAKAALIEKELVTENDKLTDAGFKVATLVREYISAIVNIRINDMYFAPFSYEKDEYILLSRFKNNGFQIRIINKDIAWWSIVQSYPLLMRQEKSNDWDFKQIDDETLENLNNESIDTIGRVLEIEIYNHQGDPQQSLYNIYEQNDLLFIRYPLKDKVLNVHIGVINTFIRELFGFDTDENHINKAEE
chain 3: MTFEEKLSKIYNEIANEISSMIPVEWEKVYTMAYIDDGGGEVFFNYTKPGSDDLNYYTNIPKEYNISVQVFDDLWMDLYDLFEELRDLFKEEDLEPWTSCEFDFTREGELKVSFDYIDWINSEFGQIGRQNYYKYRKFGILPETEYEINKVKEIEQYIKELEE
notes: EsaD nuclease toxin of Staphylococcus aureus with H528A, as m1; EsaE chaperone of Staphylococcus aureus, as m5; EsaG immunity protein of Staphylococcus aureus, as m6; also called EsaDEG complex; not shown: His6, C-terminal, kept; copies: + +
As to B1, the binding result is “binds”.

For the origin of these results see paper PMC10653861, “Three small partner proteins facilitate the type VII-dependent secretion of an antibacterial nuclease” (mBio, 2023).
